Numbered stars: 1 amine (or outer) side, 2 acyl side, 3 side chain; on linkers, the order of the positions; unused ones are H or OH. Bridge positions count the residues as written; N and C are the ends. * marks the point of attachment. C20 diacid = O=C(O)CCCCCCCCCCCCCCCCCCC(=O)*; γGlu = O=C(O)[C@H](CCC(=O)[*:2])N[*:1]
Assays:
[1] = biological target: T1, human calcitonin receptor (human, UniProt P30988 25-474); assay: IC50 at hCTR divided by IC50 at hAmylin-R (reference)
T1 construct: whole, on cells; Membranes of a BHK tk'ts 13 cell line stably transfected with the human calcitonin receptor; also called hCTR; hCT
T1 sequence (looked up): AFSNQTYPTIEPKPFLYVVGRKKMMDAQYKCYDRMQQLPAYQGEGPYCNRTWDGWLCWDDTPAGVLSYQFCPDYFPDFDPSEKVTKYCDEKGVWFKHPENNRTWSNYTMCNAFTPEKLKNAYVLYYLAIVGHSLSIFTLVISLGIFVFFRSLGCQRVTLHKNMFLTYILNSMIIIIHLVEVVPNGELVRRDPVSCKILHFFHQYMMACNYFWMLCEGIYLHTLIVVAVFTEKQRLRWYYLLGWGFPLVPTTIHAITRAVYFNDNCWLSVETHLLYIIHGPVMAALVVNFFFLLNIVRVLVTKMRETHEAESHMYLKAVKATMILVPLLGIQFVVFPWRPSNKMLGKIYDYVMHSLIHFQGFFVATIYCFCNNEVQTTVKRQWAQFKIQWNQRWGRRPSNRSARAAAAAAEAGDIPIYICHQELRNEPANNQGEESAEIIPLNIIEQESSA
In short: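 Membranes (35 ng/μL final) + SPA beads, 50 mM Hepes pH 7.4 buffer with 1 mM CaCl2, 5 mM MgCl₂, 0.1% OA, 0.02% Tween20; 120 min, 25° C, shaking; centrifuged, counted; IC₅₀ by one-site binding competition.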

[2] = biological target: T2, rat calcitonin receptor (rat, UniProt P32214 25-516); assay: IC50 at rCTR divided by IC50 at rAmylin-R (reference)
T2 construct: whole, on cells; Membranes of BHK tk'ts 13 cells transiently transfected with the rat calcitonin receptor; also called rCTR; rat calcitonin (a) receptor
T2 sequence (looked up): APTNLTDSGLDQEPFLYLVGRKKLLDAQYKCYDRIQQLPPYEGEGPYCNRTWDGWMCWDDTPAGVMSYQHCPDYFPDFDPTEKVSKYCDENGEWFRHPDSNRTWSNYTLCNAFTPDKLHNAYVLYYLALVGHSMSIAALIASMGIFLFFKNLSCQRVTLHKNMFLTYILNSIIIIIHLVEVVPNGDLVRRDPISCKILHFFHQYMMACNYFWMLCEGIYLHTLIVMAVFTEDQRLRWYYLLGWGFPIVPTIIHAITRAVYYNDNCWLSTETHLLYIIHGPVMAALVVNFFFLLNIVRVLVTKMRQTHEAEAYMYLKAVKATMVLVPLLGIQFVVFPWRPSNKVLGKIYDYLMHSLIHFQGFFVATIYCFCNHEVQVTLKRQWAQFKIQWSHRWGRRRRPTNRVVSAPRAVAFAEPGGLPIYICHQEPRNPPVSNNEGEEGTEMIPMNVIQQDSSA

[3] = biological target: T2, rat calcitonin receptor; assay: SPA competition vs 125I-calcitonin, membranes with rat CTR (Assay VIII)
[4] = biological target: T3, rat amylin receptor (rat calcitonin receptor + rat RAMP 3) (rat, UniProt P32214 25-516; Q9JJ73 23-147); assay: SPA competition vs 125I-rat amylin, membranes with rat CTR + rat RAMP3 (Assay VI)
T3 construct: whole, on cells; Membranes of BHK tk'ts 13 cells transiently transfected with the rat calcitonin receptor and rat RAMP 3; also called rAmylin-R; rat amylin 3(a) receptor
T3 sequence (looked up) 1: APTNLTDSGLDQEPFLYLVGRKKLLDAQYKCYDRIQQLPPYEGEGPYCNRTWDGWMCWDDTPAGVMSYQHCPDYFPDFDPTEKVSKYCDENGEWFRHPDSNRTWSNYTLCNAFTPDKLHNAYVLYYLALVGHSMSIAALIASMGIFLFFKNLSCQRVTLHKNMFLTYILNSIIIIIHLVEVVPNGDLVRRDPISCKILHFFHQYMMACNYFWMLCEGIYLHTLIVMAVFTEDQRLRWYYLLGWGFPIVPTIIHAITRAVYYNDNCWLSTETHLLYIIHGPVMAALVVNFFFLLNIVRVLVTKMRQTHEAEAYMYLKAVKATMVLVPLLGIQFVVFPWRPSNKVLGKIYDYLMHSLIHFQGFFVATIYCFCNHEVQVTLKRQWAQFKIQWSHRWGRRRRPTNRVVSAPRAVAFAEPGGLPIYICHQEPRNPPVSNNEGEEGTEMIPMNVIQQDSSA
T3 sequence (looked up) 2: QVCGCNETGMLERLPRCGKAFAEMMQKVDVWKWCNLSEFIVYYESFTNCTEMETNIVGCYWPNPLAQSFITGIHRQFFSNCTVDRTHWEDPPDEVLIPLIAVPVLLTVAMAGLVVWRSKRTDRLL

B1: N^α1-[(4S)-4-carboxy-4-(19-carboxynonadecanoylamino)butanoyl]-[Glu14,Arg17,Pro21,Pro27,Pro31]-h-amylin (peptide)
peptide: {C20 diacid-γGlu}-KCNTATCATQRLAEFLRHSSPNFGAIPSSTPVGSNTY-NH2
modifications: disulfide 2-7
SMILES: CC[C@H](C)[C@H](NC(=O)[C@H](C)NC(=O)CNC(=O)[C@H](Cc1ccccc1)NC(=O)[C@H](CC(N)=O)NC(=O)[C@@H]1CCCN1C(=O)[C@H](CO)NC(=O)[C@H](CO)NC(=O)[C@H](Cc1c[nH]cn1)NC(=O)[C@H](CCCNC(=N)N)NC(=O)[C@H](CC(C)C)NC(=O)[C@H](Cc1ccccc1)NC(=O)[C@H](CCC(=O)O)NC(=O)[C@H](C)NC(=O)[C@H](CC(C)C)NC(=O)[C@H](CCCNC(=N)N)NC(=O)[C@H](CCC(N)=O)NC(=O)[C@@H](NC(=O)[C@H](C)NC(=O)[C@@H]1CSSC[C@H](NC(=O)[C@H](CCCCN)NC(=O)CC[C@H](NC(=O)CCCCCCCCCCCCCCCCCCC(=O)O)C(=O)O)C(=O)N[C@@H](CC(N)=O)C(=O)N[C@@H]([C@@H](C)O)C(=O)N[C@@H](C)C(=O)N[C@@H]([C@@H](C)O)C(=O)N1)[C@@H](C)O)C(=O)N1CCC[C@H]1C(=O)N[C@@H](CO)C(=O)N[C@@H](CO)C(=O)N[C@H](C(=O)N1CCC[C@H]1C(=O)N[C@H](C(=O)NCC(=O)N[C@@H](CO)C(=O)N[C@@H](CC(N)=O)C(=O)N[C@H](C(=O)N[C@@H](Cc1ccc(O)cc1)C(N)=O)[C@@H](C)O)C(C)C)[C@@H](C)O
notes: modifications are with respect to human amylin; also called compound 31
Ratio hCT/hAmylin binding [1]: 16 | Ratio rCT/rAmylin binding [2]: 42.8 | IC50 [3]: 26.5 nM | IC50 [4]: 0.619 nM

B2: N^α1N^α1-[(4S)-4-carboxy-4-(19-carboxynonadecanoylamino)butanoyl]-[Glu14,Arg17,Pro21,Pro27,Glu35]-h-amylin (peptide)
peptide: {C20 diacid-γGlu}-KCNTATCATQRLAEFLRHSSPNFGAIPSSTNVGSETY-NH2
modifications: disulfide 2-7
SMILES: CC[C@H](C)[C@H](NC(=O)[C@H](C)NC(=O)CNC(=O)[C@H](Cc1ccccc1)NC(=O)[C@H](CC(N)=O)NC(=O)[C@@H]1CCCN1C(=O)[C@H](CO)NC(=O)[C@H](CO)NC(=O)[C@H](Cc1c[nH]cn1)NC(=O)[C@H](CCCNC(=N)N)NC(=O)[C@H](CC(C)C)NC(=O)[C@H](Cc1ccccc1)NC(=O)[C@H](CCC(=O)O)NC(=O)[C@H](C)NC(=O)[C@H](CC(C)C)NC(=O)[C@H](CCCNC(=N)N)NC(=O)[C@H](CCC(N)=O)NC(=O)[C@@H](NC(=O)[C@H](C)NC(=O)[C@@H]1CSSC[C@H](NC(=O)[C@H](CCCCN)NC(=O)CC[C@H](NC(=O)CCCCCCCCCCCCCCCCCCC(=O)O)C(=O)O)C(=O)N[C@@H](CC(N)=O)C(=O)N[C@@H]([C@@H](C)O)C(=O)N[C@@H](C)C(=O)N[C@@H]([C@@H](C)O)C(=O)N1)[C@@H](C)O)C(=O)N1CCC[C@H]1C(=O)N[C@@H](CO)C(=O)N[C@@H](CO)C(=O)N[C@H](C(=O)N[C@@H](CC(N)=O)C(=O)N[C@H](C(=O)NCC(=O)N[C@@H](CO)C(=O)N[C@@H](CCC(=O)O)C(=O)N[C@H](C(=O)N[C@@H](Cc1ccc(O)cc1)C(N)=O)[C@@H](C)O)C(C)C)[C@@H](C)O
notes: modifications are with respect to human amylin; also called compound 22
Ratio hCT/hAmylin binding [1]: 12.3 | Ratio rCT/rAmylin binding [2]: 28.5 | IC50 [3]: 62.5 nM | IC50 [4]: 2.19 nM

B3: N^α1-[(4S)-4-carboxy-4-(19-carboxynonadecanoylamino)butanoyl]-[Glu14,Arg17,Pro21,Pro27,Pro34]-h-amylin (peptide)
peptide: {C20 diacid-γGlu}-KCNTATCATQRLAEFLRHSSPNFGAIPSSTNVGPNTY-NH2
modifications: disulfide 2-7
SMILES: CC[C@H](C)[C@H](NC(=O)[C@H](C)NC(=O)CNC(=O)[C@H](Cc1ccccc1)NC(=O)[C@H](CC(N)=O)NC(=O)[C@@H]1CCCN1C(=O)[C@H](CO)NC(=O)[C@H](CO)NC(=O)[C@H](Cc1c[nH]cn1)NC(=O)[C@H](CCCNC(=N)N)NC(=O)[C@H](CC(C)C)NC(=O)[C@H](Cc1ccccc1)NC(=O)[C@H](CCC(=O)O)NC(=O)[C@H](C)NC(=O)[C@H](CC(C)C)NC(=O)[C@H](CCCNC(=N)N)NC(=O)[C@H](CCC(N)=O)NC(=O)[C@@H](NC(=O)[C@H](C)NC(=O)[C@@H]1CSSC[C@H](NC(=O)[C@H](CCCCN)NC(=O)CC[C@H](NC(=O)CCCCCCCCCCCCCCCCCCC(=O)O)C(=O)O)C(=O)N[C@@H](CC(N)=O)C(=O)N[C@@H]([C@@H](C)O)C(=O)N[C@@H](C)C(=O)N[C@@H]([C@@H](C)O)C(=O)N1)[C@@H](C)O)C(=O)N1CCC[C@H]1C(=O)N[C@@H](CO)C(=O)N[C@@H](CO)C(=O)N[C@H](C(=O)N[C@@H](CC(N)=O)C(=O)N[C@H](C(=O)NCC(=O)N1CCC[C@H]1C(=O)N[C@@H](CC(N)=O)C(=O)N[C@H](C(=O)N[C@@H](Cc1ccc(O)cc1)C(N)=O)[C@@H](C)O)C(C)C)[C@@H](C)O
notes: modifications are with respect to human amylin; also called compound 32
Ratio hCT/hAmylin binding [1]: 10.9 | Ratio rCT/rAmylin binding [2]: 34 | IC50 [3]: 5.98 nM | IC50 [4]: 0.176 nM

B4: N^α1-[(4S)-4-carboxy-4-(19-carboxynonadecanoylamino)butanoyl]-[His14,Arg17,Pro21,Pro27,Glu35]-h-amylin (peptide)
peptide: {C20 diacid-γGlu}-KCNTATCATQRLAHFLRHSSPNFGAIPSSTNVGSETY-NH2
modifications: disulfide 2-7
SMILES: CC[C@H](C)[C@H](NC(=O)[C@H](C)NC(=O)CNC(=O)[C@H](Cc1ccccc1)NC(=O)[C@H](CC(N)=O)NC(=O)[C@@H]1CCCN1C(=O)[C@H](CO)NC(=O)[C@H](CO)NC(=O)[C@H](Cc1c[nH]cn1)NC(=O)[C@H](CCCNC(=N)N)NC(=O)[C@H](CC(C)C)NC(=O)[C@H](Cc1ccccc1)NC(=O)[C@H](Cc1c[nH]cn1)NC(=O)[C@H](C)NC(=O)[C@H](CC(C)C)NC(=O)[C@H](CCCNC(=N)N)NC(=O)[C@H](CCC(N)=O)NC(=O)[C@@H](NC(=O)[C@H](C)NC(=O)[C@@H]1CSSC[C@H](NC(=O)[C@H](CCCCN)NC(=O)CC[C@H](NC(=O)CCCCCCCCCCCCCCCCCCC(=O)O)C(=O)O)C(=O)N[C@@H](CC(N)=O)C(=O)N[C@@H]([C@@H](C)O)C(=O)N[C@@H](C)C(=O)N[C@@H]([C@@H](C)O)C(=O)N1)[C@@H](C)O)C(=O)N1CCC[C@H]1C(=O)N[C@@H](CO)C(=O)N[C@@H](CO)C(=O)N[C@H](C(=O)N[C@@H](CC(N)=O)C(=O)N[C@H](C(=O)NCC(=O)N[C@@H](CO)C(=O)N[C@@H](CCC(=O)O)C(=O)N[C@H](C(=O)N[C@@H](Cc1ccc(O)cc1)C(N)=O)[C@@H](C)O)C(C)C)[C@@H](C)O
notes: modifications are with respect to human amylin; also called compound 30
Ratio hCT/hAmylin binding [1]: 23.6 | Ratio rCT/rAmylin binding [2]: 36.1 | IC50 [3]: 114 nM | IC50 [4]: 3.14 nM

B5: N^α1-[(4S)-4-carboxy-4-(19-carboxynonadecanoylamino)butanoyl]-[Glu14,Arg17,Pro21,Pro28,Glu35]-h-amylin (peptide)
peptide: {C20 diacid-γGlu}-KCNTATCATQRLAEFLRHSSPNFGAILPSTNVGSETY-NH2
modifications: disulfide 2-7
notes: modifications are with respect to human amylin; also called compound 33
Ratio hCT/hAmylin binding [1]: 3.9 | Ratio rCT/rAmylin binding [2]: 12.6 | IC50 [3]: 28.9 nM | IC50 [4]: 2.29 nM
